Square brackets hold non-standard residues; d marks the D form. Ends that are not written are not given here. Hyp = O=C(O)[C@@H]1C[C@@H](O)CN1
Experiments:
HIF bound to HA-pVHL = molecular target: T1, HIF bound to HA-pVHL (Homo sapiens, UniProt P40337); experiment: Peptide elution of HIF coimmunoprecipitated with HA-pVHL from ts20 cells; type: binding; conditions: 7 μg of peptide in 65 μl PBS
T1 construct: expressed in transfected cells; host or cells: ts20 cells stably transfected with pIRES-HA-VHL
T1 sequence (P40337 whole entry): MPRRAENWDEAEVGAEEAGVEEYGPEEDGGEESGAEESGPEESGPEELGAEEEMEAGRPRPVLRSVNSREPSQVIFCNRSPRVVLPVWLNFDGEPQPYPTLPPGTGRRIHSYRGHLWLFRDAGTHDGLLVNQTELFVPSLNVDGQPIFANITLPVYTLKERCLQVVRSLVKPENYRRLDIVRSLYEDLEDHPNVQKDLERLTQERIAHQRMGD
T1 sequence (P62869 whole entry partner): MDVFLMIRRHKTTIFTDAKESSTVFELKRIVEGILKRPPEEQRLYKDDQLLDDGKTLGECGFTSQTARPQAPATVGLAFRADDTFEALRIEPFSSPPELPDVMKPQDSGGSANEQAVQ
T1 sequence (P83940 whole entry partner): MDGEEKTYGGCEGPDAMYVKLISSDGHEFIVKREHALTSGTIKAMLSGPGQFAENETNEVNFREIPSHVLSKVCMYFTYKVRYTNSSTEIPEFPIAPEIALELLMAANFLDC
Protocol: Individual G418-resistant colonies were isolated using cloning cylinders and expanded. Cells producing HA-VHL or HA-VHL (Y98H) were identified by anti-HA immunoblot analysis. […] For the tests shown in FIG. 7C, ts20 cells were grown at the restrictive or permissive temperature for 14 hour, methionine-starved for 90 min, and then grown in the methionine-free media supplemented with ^35S-met ([…]) for 90 min.

pVHL = molecular target: T2, pVHL (Homo sapiens, UniProt P40337); experiment: Binding of 35S-labeled pVHL to immobilized biotinylated HIF (556-575) peptides; conditions: peptide on monomeric avidin Sepharose, autoradiography
T2 construct: made in house; host or cells: coupled in vitro transcription/translation (TNT kit, Promega)
T2 sequence (P40337 whole entry): as the sequence (P40337 whole entry) above

Row | elution of HIF bound to HA-pVHL (HIF bound to HA-pVHL) | Substance | binding to pVHL (pVHL)
1 | not eluted | HIF (556-575) Pro564Ala peptide: HIF1α 556-575 peptide with Pro564 replaced by alanine (DLDLEMLAAYIPMDDDFQLR) | 
2 |  | HIF (556-575) peptide with the Leu562Ala substitution and hydroxyproline at residue 564: HIF1α 556-575 peptide, Leu562Ala, hydroxyproline at 564 (DLDLEMAA[Hyp]YIPMDDDFQLR) | pVHL bound

Source: patent US9766240B2, “Method of identifying a compound for treating a hypoxic or ischemic related disorder” (Dana Farber Cancer Institute, Inc., priority 2001, dated 2017)
